How the values were obtained:
[1] = molecular target: T1, HGF/SF (hepatocyte growth factor/scatter factor) (UniProt P14210 32-728, limits assumed); assay: SPR (BIAcore), HGF/SF immobilized on CM5 chip, Fab injected
Description: (§1) The binding affinity of the anti-HGF/SF Fab humanized antibody to HGF/SF was determined by SPR (Surface plasmon Resonance) on a BIAcore device (BIAcore, Sweden).
(§2) Specifically, HGF/SF was immobilized on a carboxymethyldextran-modified (CM5) sensor chip (Biacore AB) using 10 mM sodium acetate buffer (pH 4.0) at a flow rate of 5 μl/min with an amine coupling kit (Biacore AB) in accordance with the instruction of the kit. Then 4 anti-HGF/SF Fabs and SFN 68 as a control dissolved in phosphate buffered saline (PBS, pH 7.4) containing 0.005% Tween 20 (Sigma) was injected on the chip at 25° C. for 2 min at a flow rate of 30 μl/min, respectively. The anti-HGF/SF Fab humanized antibody was diluted to a varying concentration in the range of 1.25 to 200 nM. The surface was regenerated with 1 M NaCl/50 mM NaOH. The kinetic rate constants (kₒₙ and koff) as well as the equilibrium dissociation constant (KD) were determined by using BIA evaluation software.

[2] = molecular target: T1, HGF/SF (hepatocyte growth …); assay: affinity examination of the HSFN 68 clones on HGF/SF, reference SFN68; method not named in this paragraph
[3] = molecular target: T1, HGF/SF (hepatocyte growth …); assay: competition ELISA: HGF/SF coated on the plate, cMET/Fc chimera as the blocked ligand mixed with the varied Fab, bound cMET/Fc detected with HRP anti-human Fc, Abs. at 450 nm, triplicates
Description: A 96-well microplate was coated with 1 μg/ml of HGF/SF and blocked by repeating the procedure of (2-2) of Example 2. Then 25 μl of 2 nM cMET/Fc chimera (R&D systems, USA) mixed with 25 μl of 0 to 200 nM HSFN 68-13 or SFN 68 dissolved in TBSB was added to the HGF/SF coated wells. The plate was incubated for at 37° C. 1 hour and washed with TBS-T. The amount of bound cMET/Fc chimera was assessed with HRP-conjugated rabbit anti-human Fc specific IgG (Pierce) using ultra-TMB substrate solution (Pierce) as a substrate. After 30 min incubation, optical density was measured at 450 nm. All experiments were performed in triplicates, and the average and standard deviation of the optical densities are listed in FIG. 5.

[4] = molecular target: T1, HGF/SF (hepatocyte growth …); assay: SPR (BIAcore), HGF/SF immobilized
Description: as §1, §2

T1 sequence (P14210 32-728 limits assumed): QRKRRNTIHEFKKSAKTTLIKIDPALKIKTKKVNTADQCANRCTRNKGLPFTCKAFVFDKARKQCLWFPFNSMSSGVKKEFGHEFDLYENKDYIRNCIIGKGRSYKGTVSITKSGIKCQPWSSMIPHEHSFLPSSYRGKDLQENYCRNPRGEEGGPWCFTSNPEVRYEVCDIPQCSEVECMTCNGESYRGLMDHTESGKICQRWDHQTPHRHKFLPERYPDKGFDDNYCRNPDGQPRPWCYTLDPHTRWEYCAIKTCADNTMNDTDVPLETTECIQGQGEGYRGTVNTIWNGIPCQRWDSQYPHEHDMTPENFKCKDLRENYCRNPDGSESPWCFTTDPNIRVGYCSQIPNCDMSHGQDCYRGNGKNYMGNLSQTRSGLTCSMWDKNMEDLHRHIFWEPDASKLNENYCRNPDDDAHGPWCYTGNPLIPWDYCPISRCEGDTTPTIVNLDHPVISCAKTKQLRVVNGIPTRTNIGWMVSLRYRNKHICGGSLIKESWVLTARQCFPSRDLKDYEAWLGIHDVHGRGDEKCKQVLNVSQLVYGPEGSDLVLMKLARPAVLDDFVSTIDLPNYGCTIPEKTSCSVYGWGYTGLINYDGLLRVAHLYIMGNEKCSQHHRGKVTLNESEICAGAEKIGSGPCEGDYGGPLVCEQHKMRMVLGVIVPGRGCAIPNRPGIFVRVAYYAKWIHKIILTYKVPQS

Binder	Kd [1]	kon [1]	fold higher affinity than SFN68 [2]	IC50 (read off the curve) [3]	fold tighter affinity than SFN68 control [4]
HSFN 68-13 Fab (Fab, V domains shown, also called anti-HGF/SF Fab humanized antibody) VH: QQQLVESGGGVVRPGGSLRLSCAASGFTFSTYYMSWVRQAPGKGLEWIGYIGTSSGTTYYANSVKGRFTISSDNAKNSVYLQMNSLRPEDTAVYYCARGLGRINLWGPGTLVTVSS VL: ELQMTQSPSSLSASVGDRVTITCRASQSISTWLAWYQQKPGKAPKLLIYKASTLESGVPLRFSGGGSGTDFTLTISSLQSEDFATYFCQQSYSLPPTFGQGTKVEVKR	2.09 nM	647000 M⁻¹ s⁻¹	~6 fold	~2 nM	~6 fold
HSFN 68-16 Fab (Fab, V domains shown, Fab with human Ckappa and human CH1, expressed from pComb3X in E. coli HB2151) VH: QQQLVESGGGLVQPGGSLRLSCAASGFTFSTYYMSWIRQAPGKGLEWIGYIGTSSGTTYYANSVKGRFTISSDNAQNSVYLQMNSLRPEDTAVYYCARGLGRINLWGQGTLVTVSS VL: ELVMTQSPSTLSASVGDRVTITCRASQSISSWLAWYQQKPGKAPKLLIYKASTLESGVSSRFSGGGSGTEFTLTISSLQPDDFATYYCQQYSRYSGGTFGQGTKVEIRR	43.1 nM	32400 M⁻¹ s⁻¹	–	–	–
HSFN 68-41 Fab (Fab, V domains shown, Fab with human Ckappa and human CH1, expressed from pComb3X in E. coli HB2151) VH: QQQLVESGGGLVQPGGSLRLSCAASGFTFSTYYMSWVRQAPGKGLEWVGYIGTSSGTTYYANSVKGRFTISSDNAKNSVYLQMNSLRPEDTAVYYCARGLGRINLWGQGTLVTVSS VL: ELQMTQSPSSVSASVGDRVTISCRASQDIRSLLAWYQQKPGKAPKLLIYKASTLESGVPSRFSGSGSGTEFTLTISNLQPDDFATYYCQQYSRYSGGTFGQGTKVEIRR	10.6 nM	106000 M⁻¹ s⁻¹	–	–	–
HSFN 68-27 Fab (Fab, V domains shown, Fab with human Ckappa and human CH1, expressed from pComb3X in E. coli HB2151) VH: QVQLVESGGGLVKPGGSRRLSCAASGFTFSTYYMSWVRQAPGKGLEWIGYIGTSSGTTYYANSVKGRFTISSDNAQNSVYLQMNSLRPEDTAVYYCARGLGRINLWGQGTLVTVSS VL: ELQMTQSPSTLSASVGDRVTITCRASQSISSRLAWYQQKPGKAPKLLIYRASTLEGGVPSRFSGSGSGTEFTLTISGLQPDDFATYYCQQYSTFSPTFGQGTQVDIKR	5.27 nM	392000 M⁻¹ s⁻¹	–	–	–
